Neutralisation of Env pseudovirus in TZM-bl cells, IC50 data for 1 substance are collected here from article PMC11082178.

The target of this experiment is CRF01_AE Env consensus with redesigned HV loops, version 1 (shortest V1HV, without the 'IGNITD' motif), Env on pseudovirus (HIV-1 CRF01_AE (consensus)).

Substance 10-1074 (antibody) gave a neutralisation of Env pseudovirus in TZM-bl cells, IC50 of 0.544 µg/mL.
